# Measurements: the DeepSol protein solubility set
# Experiment: soluble on expression in E. coli; label from the status in PepcDB or PDB records
row,Sequence,soluble on expression in E. coli
1,MGSDKIHHHHHHMNEIAGIPYVEASFDKNGQGPEEEVALPAGVTDLIIMSHGWNNNKSKAEDLYNGFFASFAAAAQPNDLSARKLVILGVFWPSREYDTSVAVSGTPATGGGGAALGGGNGGSIKRLEEKLDDMKEIFTEAEQKKLLDEAKALLPDLEEKASVRDLFVNKMRSLLDPSAAGKEDASNIFFKDGGNELMKNLKAEEEDLGEDVAGGGAALPLGVSTPARAEGGAAGLVEILSGFKAAAINLLNYTTYYEMKTRSGTVGKNGVAPLIDKLASQVERIHLIGHSFGCRVVTSAALGSKTDKIKSMILLQAAFSQNGFSKIEQGFYRAIVDNHRVKGPVLITHTPNDRAVGLAYPLASRISGDKTMAFGDKDDLFGAMGRNGAQKMEQGEAVEGKLLSVGGPYAFKANTYFNLEASDFIKNHNDIKGKEVGYVVRKVVATAGMG,not soluble
2,MGSDKIHHHHHHMSDWTDRLPEAARAYIADRRVDEVECILSDIAGVARGKAMPAFKFGKQTSFFLPNSIFLQTITGEWADNPSGAFTEPDMILIPDYSTATAAPWTADITLQVIHDAVDQQGRPVPVSPRNVLRRVVELYNAEGWTPIVAPEMEFFLVARNIDPNMPVMPPMGRTGRRAAAKQAYSMSAVDEYGKVIDDIYDFAEAQGFEIDGILQEGGAGQVEINLAHGDPVALADQIFFFKRLIREAALRHDCFATFMAKPIEGEPGSAMHIHHSVVDSASKLNIFSDAKGGETEAFLHFIAGMQTHLPAAVALLAPYVNSYRRYVPDFAAPINLEWGRDNRTTGLRVPISGPEARRLENRLAGMDCNPYLGLAASLACGYLGLKERKMPQPECTGDAYMSETDLPYNLGDALDLLEEDAALRDVLGPEFCGVYDSVKRNEYKEFLQVISPWEREHLLLNV,not soluble
3,MGSDKIHHHHHHMLYNTDFLSRLTQGVKYLSSAWGLSSEAKLTLLTISENATFRIADENSGRNLIVRVHRPDYHTEAEILSELAWIDALRQDGVVVTPRPISANDGSLLQIFSDGETMRHAVAFEYMAGKEPDAESDLVHWYRTLGEINAKLHAHSRRWTRPENFIRKTWNFNRILGNGAYWGDWRDALGLKPDGKSVLERTHALLETQTSAYGYGEERFGLVHCDMRAANLLVDGDRLGVIDFDDCGLSWFAYDFAAAISFMEHEPFIPDLMAAWLEGYRRVAPLDAQHEAALPMFIMLRRMQLTAWIASHAETPTAQSMGTAYTDGTVALAECYLAEHR,not soluble
4,MGSDKIHHHHHHMHQTLATSRKTSNACNVLALCTRDNPAILTIAHRGFWTATAENSLASVRAAVAAGVEMIEIDTQATADGRLVVIHDETLDRTTTGKGTVSALPFEVVRAAKLKAGAGGDGADVTDECVPTLEEVLEEARGRITVNIDTKFTRDLPQVMETVLRLGVEDQVLVKTDVDPEAERFEVLGSHWFGRIPHMPMFPVRKGKFAEDLRRIEALKAPMIEVKFTDIADLAEGRAEMERQNIRLWINSLDVSHCLDFNDTRALSNPEAVWGALAEAGTGAIQTDEVEAFTAWLKAGAGETGRAWTR,not soluble
5,SFDNLRNELSRPYGILFINNKIFLEFISKSIQRGSRIITVGDYVSRVLEENGIVPFLEVIDGKTKRTITQNRAITRNKEYKVTNEAGKIRFEIFEIMENILKDREGGVVFVDGEEDLLVIPVTLSANHGDIVIYGQPNAGAVVIIVNEMIRWRVRDILEKAIVKE,not soluble
6,MGSDKIHHHHHHMGQVSGCFATSYAEARQKFLAAARGAGATLAEFPHPTRRGSAGEDLAMDVAWVGPADARRVLIISSGVHGVEGFCGSGAQVALLSDSILLADCAEARLGLLVVHAVNPYGFSHLRRVNEDNVDLNRNFMDFAQPLPDNAPYAEIAPMLLPTHWPPSGEEQAQFMKAVAEKGMDWYQTAVSSGQYQDPKGLFYGGNKETWSNYTLRRVLARFGSARGSLRWIDIHTGLGPWGYGEPICMGPDDDGQLKRTRAIWGGEVTSIYDGSSSSARLTGLAWEAVPGTLPDVDYAGIALEFGTLPVAEVLDALRGDHWLYLHPEADENQRTLVRQAMWRAFYGDAYDWRAGVVEQVTEAVRKAMRAR,not soluble
7,MGSDKIHHHHHHMYLKVFKEDVIDGLQKAANIIPAKTGAAYLRSIWLKAEAGMVHVLSTDSNIEFRGSYKAEVTEEGLAGVQGRAFVDLIRKLPAGEITLHLDPKTGTLGIEQGRRKYTLPTNDTAWFQNFSDYPESGSVFWSGDFLQELIDKLSFCISDEDTMEAIACMSMKPRQDNAIEACGLNGHQFAMQRFLNDDIHALLPAEGILVQKKYLMELKKWLGADEIELNIDNKRLFFRTGDKRETFSLPLSYYQYPDYTSFVSKLSTPDAGALEVNRKDMMAALDRVLIFNTDNNRCTYFDLEAGEVSLSSQGQEVGSASESLEGTYDGSLKRIAFPTRNLIEIMNHYQSDSMRFTLTGTEGPCGLTGENDPDYLVIVMPMKIVEETYYSEEEV,not soluble
8,MRCIQLYVFYLISQLFTTGSAQKTFHYGVTGGEQFGRHEPSTRLSRFQSTPVSLNPLEDTLRVQQILKKLEDPGGLEIRRRSTSRRLHGVLTEPFGTPLVISGNSSEKKKKKPLKIKKRNGRRNPKSPEVNEYELQLAKQIEEDQLKFVEDEKNPMKYVVENGLLFRQSRYSPLARVEIPPVSGMSEISGISQRTSHSVGQTMQNPPRKRRRKQSYKLKNSKSSSESMFRTNVFRGNINRQIPAIPLPSPFSVAYGKPSFAIAREEDGKCYTNRFGYRCCDEALEALILKSYEKLRRKSNDLEDNLSKIASTLRRDSRQVFAKNLEAIVSTSNFGTSIPSDFSCKVELGPNRFVAQVFVPELGLDAKTTTRRHRIPYHELSREDLSDAADLVVSRNGIIVSKLL,not soluble
9,MGSDKIHHHHHHMQEQINLSEWRERARSFEQSANKVVLGLERQVRALTIAIFSRGHVLLEGDVGVGKTTLLKAASRLLGGAYQRIEGAIDLMPGDFLYHAYIDQNGQPAVAPGPLLRHEENLAVFFFNEINRARPQAHSLLLRLMAERSVNAFNRDYAFPHLTVFADRNGLEREETFELPAAARDRFFMEVSVTAPEDKELQRDLMFSTRFHDADALIETLEPGLVPYDKLNAVSAAIQESVRSELALQDYAVNIWQALRHPERIGIEIEDVDISRLVAGGASPRGMAMLMRAARTRAWLEGRDYLTPDDIRAVFPETVGHRVFFTPAYELRRDEIAPALLSGVLNKIPAP,not soluble
10,MGASGRICTVVPVEDAGEAAMLALSSPTGCVELRLDFYPGDPGEALELLATRLHSPARVVVTLRSAGHGGLDRRARGERRAVLARLEDLAPEGWLVDYEVEDLHASSGCSGCIASSHPTTPPTPRRALEEAAVAERLGASAYKLVYPGVEPWEQAAAARLVAEAGGFATSFTLGPGTLASRLTALALGAPLVFGSHPRAPLDGVPQSSEIMELYLRMGLGES,not soluble
11,STTGLVTPGDVIGKATEFKAGKGAYVNDATIYASLTGTCRIVSPLPESIDQRAIVEVTGHKAHGPIPETGSVVIARVTKVMTKMAAVDILCVGSKAVRENFAGVIRQQDVRATEIDKVDMHQSFHAGDIVRAMVLSLGDARAYYLSTAKNELGVVSAESAAGETMVPISWTEMQCPLSGQTEQRKVAKVGN,soluble
12,GHMPAYVFSKESFLKFLEGHLEDDVVVVVSSDVTDFCKKLSESMVGEKEYCFAEFAFPADIFDADEDEIDEMMKYAIVFVEKEKLSEAGRNAIR,soluble
13,MSGRYNMNIILGATGQVGSMLVDNLLGKGQPVRAVVRDGLKAQGLKNKGVEVKIADYLDVEALKKAFQGGSSVFLLTPENPESENFINEIQRIMSNYREAVLSSGISKIVGLSSMGAQHKSGTGNLMASYMLEHAFSDLEIEQVFVRPAYYFSNWLGYLELVREYGILPTFFPPELELPMIAPPDVAGFLSDVMTCKTQQERIYEISGPHDYSSSDIAKIFGDVLNKNVTLQQVLPEEWENTLIQAGFSKDGTRNLMLMTKAVIDGKTKNETTNRLRFSTNFKNYLQSVILNMS,not soluble
14,SDQVFVMGHRYPDMDVIGSSLGVMRIAEMNNRNAYVVVEPGKMSPDVKRLMNEIEEYPNVIKNIVTPQVALENITEKSLLVVVDTHKPSMVINKELLDSATNVVVVDHHRRSEEFVGNPVLVYIEPYASSTAELITELFEYQPDLEQVGKIEATALLSGIVVDTKNFTLRTGSRTFDAASYLRSLGADTILVQQFLKEDI,not soluble
15,MNSCDFRVFLQEFGTTVHLSLPGSVSEKERLLLKLLMQGMSVTEISQYRNRSAKTISHQKKQLFEKLGIQSDITFWRDIFFQYNPEIISATGSNSHRYINDNHYHHIVTPEAISLALENHEFKPWIQPVFCAQTGVLTGCEVLVRWEHPQTGIIPPDQFIPLAESSGLIVIMTRQLMKQTADILMPVKHLLPDNFHIGINVSAGCFLAAGFEKECLNLVNKLGNDKIKLVLELTERNPIPVTPEARAIFDSLHQHNITFALDDFGTGYATYRYLQAFPVDFIKIDKSFVQMASVDEISGHIVDNIVELARKPGLSIVAEGVETQEQADLMIGKGVHFLQGYLYSPPVPGNKFISEWVMKAGG,soluble
16,QYRHLLDLQPMLEALSESSFLNQPVEGHGPLGIIAFGIGYNYAMEARKAHSIECRLLKIGQYPLPRTQVNELFEACSEVLVVEEGYPVYEELFRGYFGSAKVRGRMDGTLPRDGELTTDLVAAALGVKPPETATTPEIVVGRPPELCKGCGHRDMFDAINIAIKENADHHVFSDIGCYTLGALPPYNAIHTCVDMGAAITMAKGAADAGLRPAVCVIGDSTFAHSGMTGLLDAVNDRTPVTVIIADNNTTAMTGGQCSSASGSKLVNICIGLGVEEA,not soluble
17,MGSDKIHHHHHHENLYFQGMYPDLVHLGGADKYFEEILEIVNKIKLFGDFSNEEVRYLCSYMQCYAAPRDCQLLTEGDPGDYLLLILTGEVNVIKDIPNKGIQTIAKVGAGAIIGEMSMIDGMPRSASCVASLPTDFAVLSRDALYQLLANMPKLGNKVLIRLLQLLTARFRESYDRILPKTLGELI,soluble
18,KLKDIAKKILVGGEKPSDFQKEKDQVYKYPILSNSRKADDFLGYSKTFRIAEKSITVSARGTIGAVFYRDFSYLPAVSLICFIPKPEFNINFLFHALKATKFHKQGSGTGQLTMAQFKEYQVYIPSLKKQQEIAATLDP,soluble
19,SDFVITGGGIVGLATALRLQSLHPGARISVLEKEPAVARHQSGRNSGVIHAGVYYAPGSHKARFCARGVSSTRAFCDEHGIPYRICGKLIVATDAAELERMGTLETRARANGIVIERLSGEEARRLEPNIKAVGALLSPTTGIVDYGRVAERMAELFRDRGGEIRLDTEVTGGAESEAGVRLETTAGEISAGKAVFCGGLHADRLARAFGASLDFRIVPFRGEYFAIKNQPEDLVQHLIYPVPDPARPFLGVHLTRKMNGGFTVGPN,not soluble
20,MSLSIKNIKRIITAWKPSTFETYKKTFEKYGGSVNMHPDVVSYFMIHHDWKFDFFHYEKDGDIKGSYFLCNGKQIGIMARRSYPLSSDEVLIPFSPHARCFFPDKTNKLSIINKQNIINATWKIARKKQNCIIKESFSPKFEKTRRNEIQRFIRNGGEIKCISQLSDKEISSSYISLFHSRFGGTLPCYEYDNLLMFISHLRELMFGHVLFWDNKPCAIDIVLKSESSCNVYYDVPNGAVLNDENCMKLSPGSVLMWLNIDKARRYCQDNNKKMIYSIGAFRPEWKYKLLWSVPCKVGKCLCEGHHHHHH,soluble
21,MGHHHHHHSHMEELLPDGQIWANMDPEERMLAAATAFTHICAGQGEGDVRREAQSIQYDPYSKASVAPGKRPALPVQLQYPHVESNVPSETVSEASQRLRKPVMKRKVLRRKPDGEVLVTDESIISESESGTENDQDLWDLRQRLMNVQFQEDKESSFDVSQKFNLPHEYQGISQDQLICSLQREGMGSPAYEQDLIVASRPKSFILPKLDQLSRNRGKTDRVARYFEYKRDWDSIRLPGEDHRKELRWGVREQMLCRAEPQSKPQHIYVPNNYLVPTEKKRSALRWGVRCDLANGVIPRKLPFPLSPS,not soluble
